Measurements published in the supplement of paper PMC9112550, “Optimization of the antimicrobial peptide Bac7 by deep mutational scanning” (BMC Biology, 2022).

Each sequence was assayed on Escherichia coli TOP10 (assay: shrunken log2 fold change of peptide-encoding DNA abundance (4.5 h post-induction vs induction); higher = less antimicrobial activity (less host growth inhibition)). Details: time post-induction: 4.5 h; library: site-saturation at positions 5, 18, 19, 20.
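Also: peptides expressed intracellularly from a pBAD plasmid library in pooled LB shake-flask culture, induced with 0.3% L-arabinose, DNA abundance read by NGS, three biological replicates, DESeq2 with apeglm shrinkage.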

Sequence	shrunken log2 fold change
RRIRCRPPRLPRPRPRPWFIPRP	-0.51
RRIRRRPPRLPRPRPRPNFWPRP	0.198
RRIRPRPPRLPRPRPRPKMQPRP	0.132
RRIRFRPPRLPRPRPRPEAFPRP	1.82
RRIRVRPPRLPRPRPRPSQHPRP	-0.39
RRIRRRPPRLPRPRPRPEIWPRP	0.621
RRIRSRPPRLPRPRPRPHKKPRP	-0.0645
RRIRSRPPRLPRPRPRPLMQPRP	-0.0707
RRIRTRPPRLPRPRPRPGHLPRP	-0.377
RRIRARPPRLPRPRPRPIQRPRP	0.112
RRIRIRPPRLPRPRPRPKFFPRP	-0.116
RRIRNRPPRLPRPRPRPTWKPRP	0.0378
RRIRARPPRLPRPRPRPQKCPRP	0.0806
RRIRDRPPRLPRPRPRPERFPRP	0.361
RRIRVRPPRLPRPRPRPTCFPRP	-0.155
RRIRIRPPRLPRPRPRPEVIPRP	-0.0583
RRIRFRPPRLPRPRPRPLMTPRP	0.189
RRIRGRPPRLPRPRPRPDSNPRP	-0.0604
RRIRWRPPRLPRPRPRPWCDPRP	-0.0997
RRIRYRPPRLPRPRPRPSEKPRP	-0.116

Sequence	shrunken log2 fold change
RRIRPRPPRLPRPRPRPKQFPRP	-0.313
RRIRGRPPRLPRPRPRPWYTPRP	-0.225
RRIRNRPPRLPRPRPRPEEGPRP	0.234
RRIRDRPPRLPRPRPRPDSSPRP	0.109
RRIRHRPPRLPRPRPRPKSRPRP	-0.0231
RRIRARPPRLPRPRPRPRPCPRP	0.426
RRIRQRPPRLPRPRPRPWPVPRP	0.103
RRIRYRPPRLPRPRPRPQCKPRP	-1.34
RRIRIRPPRLPRPRPRPKNPPRP	-0.439
RRIRRRPPRLPRPRPRPPMGPRP	0.554
RRIRSRPPRLPRPRPRPTCPPRP	0.0454
RRIRPRPPRLPRPRPRPLCIPRP	-0.403
RRIRHRPPRLPRPRPRPCLNPRP	-0.263
RRIRHRPPRLPRPRPRPAACPRP	0.066
RRIRYRPPRLPRPRPRPKKKPRP	-0.104
RRIRWRPPRLPRPRPRPDFRPRP	0.169
RRIRFRPPRLPRPRPRPLYGPRP	-0.303
RRIRMRPPRLPRPRPRPTSLPRP	0.546
RRIRLRPPRLPRPRPRPVATPRP	0.282
RRIRTRPPRLPRPRPRPTCWPRP	0.00427

Sequence	shrunken log2 fold change
RRIRIRPPRLPRPRPRPKRFPRP	0.276
RRIRKRPPRLPRPRPRPRKVPRP	0.596
RRIRQRPPRLPRPRPRPMMLPRP	0.052
RRIRARPPRLPRPRPRPGNTPRP	-0.0858
RRIRYRPPRLPRPRPRPHDRPRP	0.0039
RRIRLRPPRLPRPRPRPTRDPRP	0.454
RRIRGRPPRLPRPRPRPTALPRP	1.12
RRIRPRPPRLPRPRPRPYNTPRP	-0.928
RRIRARPPRLPRPRPRPDHCPRP	0.063
RRIRMRPPRLPRPRPRPGAGPRP	1.22
RRIRRRPPRLPRPRPRPKEEPRP	-0.00663
RRIRMRPPRLPRPRPRPFQQPRP	-0.00146
RRIRGRPPRLPRPRPRPYLMPRP	-0.0538
RRIRKRPPRLPRPRPRPKVEPRP	0.0183
RRIRERPPRLPRPRPRPFTAPRP	-0.227
RRIRDRPPRLPRPRPRPGWCPRP	0.201
RRIRRRPPRLPRPRPRPFYHPRP	0.0115
RRIRARPPRLPRPRPRPLYNPRP	-0.225
RRIRSRPPRLPRPRPRPNNTPRP	-0.574
RRIRSRPPRLPRPRPRPVMQPRP	0.138
